The results in this text go back to publication PMC8449268, “Activity of the yeast vacuolar TRP channel TRPY1 is inhibited by Ca^2+–calmodulin binding” (The Journal of Biological Chemistry, 2021).

Conditions in all cases: both partners purified
Experiment [1] concerns the target T1, GST-Cmd1 (yeast calmodulin fused to glutathione-S-transferase) (S. cerevisiae (yeast), UniProt P06787 1-147).
T1 construct: Yeast calmodulin Cmd1, wild type; In the peptide scan the same fusion protein was used ^14C-labelled (^14C-GST-Cmd1); also called GST-fused Cmd1; yeast CaM; source: E. coli, purified (glutathione sepharose)
The experiment in a line: peptide or protein array; 20-mer TRPY1 peptides shifted by five residues on cellulose membrane (16 nmoles per spot); ^14C-GST-Cmd1 (60 cpm per spot) in 50 mM Tris pH 7.5, 150 mM NaCl, 0.1% Triton X-100, 2 mM CaCl2, 4 °C, 16 h; autoradiography.

Experiment [2] addresses T1, GST-Cmd1 (yeast calmodulin fused to …). The experiment in a line: pull-down; MBP-fused TRPY1 fragments (12 ug) immobilised on amylose resin, incubated with 12 ug GST-Cmd1 or GST-Cmd1–6 with 2 mM Ca2+, 60 min, 4 °C; bound protein detected by anti-GST blot.
For a further experiment, the target named is T2, 6His-Cmd1 (S. cerevisiae (yeast), UniProt P06787 1-147).
T2 construct: Yeast calmodulin Cmd1, wild type; also called yeast CaM; source: E. coli, purified (Ni–NTA agarose)
T2 sequence (P06787 whole entry): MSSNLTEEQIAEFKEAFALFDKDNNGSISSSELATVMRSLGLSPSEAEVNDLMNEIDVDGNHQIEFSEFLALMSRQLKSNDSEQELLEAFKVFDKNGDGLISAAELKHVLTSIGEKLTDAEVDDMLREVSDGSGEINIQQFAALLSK
The experiment can be described thus: pull-down; GST, GST-Cmd1 or GST-TRPY1-C (12 ug) immobilised on glutathione sepharose; 6His-Sumo-TRPY1-N or 12 ug 6His-Cmd1 added, 2 mM CaCl2, 60 min, 4 °C; SDS-PAGE and Coomassie blue staining.

T1 sequence (P06787 whole entry, the tested form may be a part): as the sequence (P06787 whole entry) above

B1: TRPY1 C-terminal peptide of the peptide scan, residues 527–546 (peptide, UniProt Q12324 527-546, looked up)
peptide: VYSPFLLLISVKETREARRI
notes: source: synthetic peptide, spot-synthesised on cellulose membrane
Consider B1, for which, in experiment [1], the binding result is reported as “binds”.

B2: MBP-TRPY1-C (cytosolic C terminus of TRPY1 fused to maltose-binding protein) (domain or fragment, S. cerevisiae, UniProt Q12324 538-675, looked up)
chain: KETREARRIKYNRMKRLNDDANEYDTPWDLTDGYLDDDDGLFSDNRNSGMRATQLKNSRSLKLQRTAEQEDVHFKVPKKWYKNVKKCSPSFEQYDNDDTEDDAGEDKDEVKELTKKVENLTAVITDLLEKLDIKDKKE
notes: TRPY1 (Yvc1, gene YVC1), Saccharomyces cerevisiae; cytosolic C terminus, printed as 137 amino acids, residues 538-675 (K538 to E675); The limits 538-675 are printed for GST-TRPY1-C and for 'the complete recombinant TRPY1 C terminus'; also called MBP-fused TRPY1-C; Yvc1 C terminus; source: E. coli, purified (amylose resin)
In the case of B2, in experiment [2], the binding result is on record as “binds”.

B3: GST-TRPY1-C (538–675) (domain or fragment, S. cerevisiae, UniProt Q12324 538-675, looked up)
chain: KETREARRIKYNRMKRLNDDANEYDTPWDLTDGYLDDDDGLFSDNRNSGMRATQLKNSRSLKLQRTAEQEDVHFKVPKKWYKNVKKCSPSFEQYDNDDTEDDAGEDKDEVKELTKKVENLTAVITDLLEKLDIKDKKE
notes: TRPY1 (Yvc1), Saccharomyces cerevisiae; cytosolic C terminus, printed as 137 amino acids, residues 538-675 (K538 to E675); also called GST-tagged TRPY1-C; source: E. coli, purified (glutathione sepharose)
For B3, in the experiment with 6His-Cmd1, the binding result is “binds”.
